Data reported in patent US20150140169.
Changes are numbered by the printed parent chain. Numbers in names are those of the source.

B1: bovine chymosin B variant #103 (A51I, K221T) (protein)
chain: GEVASVPLTNYLDSQYFGKIYLGTPPQEFTVLFDTGSSDFWVPSIYCKSNICKNHQRFDPRKSSTFQNLGKPLSIHYGTGSMQGILGYDTVTVSNIVDIQQTVGLSTQEPGDVFTYAEFDGILGMAYPSLASEYSIPVFDNMMNRHLVAQDLFSVYMDRNGQESMLTLGAIDPSYYTGSLHWVPVTVQQYWQFTVDSVTISGVVVACEGGCQAILDTGTSTLVGPSSDILNIQQAIGATQNQYGEFDIDCDNLSYMPTVVFEINGKMYPLTPSAYTSQDQGFCTSGFQSENHSQKWILGDVFIREYYSVFDRANNLVGLAKAI
B2: bovine chymosin B variant #110 (A51V, K221V, N50D, N144H, N160D, S201D, Q242E, M267E, Q280E) (protein)
chain: B1 chain with N50D, I51V, N144H, N160D, S201D, T221V, Q242E, M267E, Q280E
B3: bovine chymosin B variant #62 (V223Q) (protein)
chain: B1 chain with I51A, T221K, V223Q
B4: camel chymosin variant #136 (F223C) (protein)
chain: GKVAREPLTSYLDSQYFGKIYIGTPPQEFTVVFDTGSSDLWVPSIYCKSNVCKNHHRFDPRKSSTFRNLGKPLSIHYGTGSMEGFLGYDTVTVSNIVDPNQTVGLSTEQPGEVFTYSEFDGILGLAYPSLASEYSVPVFDNMMDRHLVARDLFSVYMDRNGQGSMLTLGAIDPSYYTGSLHWVPVTLQQYWQFTVDSVTINGVAVACVGGCQAILDTGTSVLCGPSSDILKIQMAIGATENRYGEFDVNCGNLRSMPTVVFEINGRDYPLSPSAYTSKDQGFCTSGFQGDNNSELWILGDVFIREYYSVFDRANNRVGLAKAI
B5: camel chymosin variant #137 (F223D) (protein)
chain: B4 chain with C223D

Target: T1, alpha-s1 casein from Bos taurus
T1 chain: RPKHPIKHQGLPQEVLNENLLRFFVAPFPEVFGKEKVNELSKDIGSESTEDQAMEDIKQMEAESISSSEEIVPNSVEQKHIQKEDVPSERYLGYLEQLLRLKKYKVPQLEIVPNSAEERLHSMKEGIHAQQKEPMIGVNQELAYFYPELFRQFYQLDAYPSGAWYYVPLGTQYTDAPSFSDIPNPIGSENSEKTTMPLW

Protein | hydrolysis of the first cut in alpha-s1-casein | small, 16 hours, 30° C. [Volume] | αs1-I CN, 16 hours, 30° C. [Volume] | αs1 CN, 16 hours, 30° C. [Volume] | hydrolysis of the first cut in alpha s1-casein | small, 6 hours, 11° C. [Volume] | small, 24 hours, 11° C. [Volume] | αs1-I CN, 6 hours, 11° C. [Volume] | αs1-I CN, 24 hours, 11° C. [Volume] | αs1 CN, 6 hours, 11° C. [Volume] | αs1 CN, 24 hours, 11° C. [Volume] | (αSN1-1)/(αSN1), 6 hours, 11° C. | (αSN1-1)/(αSN1), 24 hours, 11° C.
B1 | show a clear hydrolysis of the first cut in alpha-s1-casein, leading to a rapid formation of fragment alpha-s1-I casein | 1.3e+06 | 2.03e+07 | 1.4e+06 |  |  |  |  |  |  |  |  | 
B2 | show a clear hydrolysis of the first cut in alpha-s1-casein, leading to a rapid formation of fragment alpha-s1-I casein | 1.4e+06 | 2.26e+07 | 3e+06 |  |  |  |  |  |  |  |  | 
B3 |  |  |  |  | variant 62 shows slow hydrolysis of the first cut in alpha s1-casein, and therefore slow accumulation of alpha s1-I casein | 0 | 4.1e+06 | 1.29e+07 | 1.99e+07 | 2.67e+07 | 1.34e+07 |  | 
B4 |  |  |  |  |  |  |  | 2.06e+07 | 2.03e+07 | 2.86e+07 | 1.06e+07 | 0.7 | 1.9
B5 |  |  |  |  |  |  |  | 2.26e+07 | 2.55e+07 | 3.14e+07 | 1.1e+07 | 0.7 | 2.3
